We go through eleven molecules from patent publication US20190194329A1 (AbbVie / Abbott, published 2019).

For orientation: Kd means the constant that tells how readily two partners part at equilibrium. As usually defined, the koff is a measure of how fast the partners let go of each other. In general, kon refers to the second-order rate constant of association.

For assay [1], the target named is T1, His-tagged ECD of mouse 4-1BB (mouse, UniProt P20334 24-187).
T1 construct: also called murine 4-1BB; mu4-1BB; not shown: His tag
T1 sequence: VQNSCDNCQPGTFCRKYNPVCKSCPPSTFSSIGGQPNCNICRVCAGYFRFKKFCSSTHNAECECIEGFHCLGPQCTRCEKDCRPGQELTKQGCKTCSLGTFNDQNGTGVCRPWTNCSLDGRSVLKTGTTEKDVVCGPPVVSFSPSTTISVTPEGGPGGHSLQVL
Kind of assay: SPR (Biacore), captured antibody, His-tagged ECD analyte. The procedure: (§1) The binding kinetics of the 4-1BB antibodies for target proteins were determined by using a Biacore T200 surface plasmon resonance system (BlAcore, GE Healthcare, Piscataway, N.J.). Polyclonal goat anti-human Fc antibody (Pierce 31125) was first immobilized to the biosensor surface using standard amine coupling reagents (N-ethyl-N′-dimethylamino-propylcarbodiimide, EDC; N-hydroxysuccinimide, NHS; and ethanolamine HCl, pH 8.5), followed by the capture of antibodies on parallel surfaces at a low flow rate of 10 μL/min. No capture of the antibody was made on the reference surface to serve as a negative control. Antigen (His-tagged ECD of 4-1BB derived from human, cynomolgus monkey, or mouse) was injected to all flow cells at a flow rate of 80 μL/min for three minutes to monitor association followed by a 10-20-minute flow of HBS-EP+running buffer (10 mM HEPES, 150 mM sodium chloride, 3mM EDTA, 0.05% Tween-20, pH 7.5) to monitor the dissociation phase. […] The surface was regenerated by two consecutive injections of 10 mM glycine (pH 1.5) at a flow rate of 60 μL/min at the end of each cycle. Binding data were fit to the 1:1 Langmuir model to extract binding constants from the BlAevaluate software. Double referencing was applied in each analysis to eliminate background responses from the reference surface and buffer only control.
For orientation: SPR reads the build-up and loss of mass on a sensor chip optically.

The target of assay [2] is T2, His-tagged ECD of human 4-1BB (human, UniProt Q07011 24-184).
T2 construct: also called hu4-1BB; 4-1BB ECD; not shown: His tag
The assay is described as above. As to the method: as §1

Assay [3] has as its target T2, His-tagged ECD of human 4-1BB. Description: SPR (Biacore).
The target in assay [4] is T3, His-tagged ECD of cynomolgus monkey 4-1BB (cynomolgus monkey, UniProt Q07011 24-186 (human entry)).
T3 construct: also called cynomolgus 4-1BB; cyno 4-1BB; not shown: His tag
T3 chain: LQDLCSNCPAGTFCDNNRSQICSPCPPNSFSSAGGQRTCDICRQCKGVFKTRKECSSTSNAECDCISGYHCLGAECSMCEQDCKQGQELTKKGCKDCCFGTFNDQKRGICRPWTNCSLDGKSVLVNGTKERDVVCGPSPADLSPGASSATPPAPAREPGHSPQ
Kind of assay: SPR (Biacore), captured antibody, His-tagged ECD analyte. The procedure: as §1

Turning to literature anti-4-1BB antibody 3H3, in assay [1], the Kd came to 0.98 nM, the off-rate (koff) amounted to 0.0057 s⁻¹ and the kon came out at 5.8e+06 M⁻¹ s⁻¹.
In assay [1], literature anti-4-1BB antibody 1D8 displayed a Kd of 3.9 nM, a koff of 0.008 s⁻¹ and a kon of 2.1e+06 M⁻¹ s⁻¹.

B1: MOR-7480.1-hIgG2 (antibody, V domains shown)
VH: EVQLVQSGAEVKKPGESLRISCKGSGYSFSTYWISWVRQMPGKGLEWMGKIYPGDSYTNYSPSFQGQVTISADKSISTAYLQWSSLKASDTAMYYCARGYGIFDYWGQGTLVTVSS
VL: SYELTQPPSVSVSPGQTASITCSGDNIGDQYAHWYQQKPGQSPVLVIYQDKNRPSGIPERFSGSNSGNTATLTISGTQAMDEADYYCATYTGFGSLAVFGGGTKLTVLG
For B1, in assay [1], the binding result is “no binding (tested: antigen between 100 nM and 3.7 nM)”.

B2: 20H4.9-hIgG4 (antibody, V domains shown)
VH: QVQLQQWGAGLLKPSETLSLTCAVYGGSFSGYYWSWIRQSPEKGLEWIGEINHGGYVTYNPSLESRVTISVDTSKNQFSLKLSSVTAADTAVYYCARDYGPGNYDWYFDLWGRGTLVTVSS
VL: EIVLTQSPATLSLSPGERATLSCRASQSVSSYLAWYQQKPGQAPRLLIYDASNRATGIPARFSGSGSGTDFTLTISSLEPEDFAVYYCQQRSNWPPALTFGGGTKVEIKR
Take B2: in assay [2], the dissociation constant Kd turned out to be 4.9 nM, the off-rate (koff) is 0.0021 s⁻¹ and the kon amounted to 420000 M⁻¹ s⁻¹. For the same molecule, the binding result in assay [1] was “no binding (tested: antigen between 100 nM and 3.7 nM)”.

B3: Mouse TABBY9 with mouse IgG1 constant (antibody, V domains shown)
VH: QVQLKQSGPGLVQPSQSLSITCTVSGFSLTSYGVHWVRQSPGKGLEWLGMIWSGGSTDYNAAFISRLSISKDNSKSQVFFKMNSLQADDTALYFCASYGGFYETMDYWGQGTSVTVSS
VL: DIQMTQTTSSLSASLGDRITISCRASQDISNYLNWYQRKPDGTVKLLIYYTSRLHSGVPSRFSGSGSGRDYSLTISNLEQEDIATYFCQQGNTLPYTFGGGTKLEIK
notes: Mouse IgG1; also called TABBY9-mIgG1
For the molecule B3, the binding result in assay [3] is “binds”.

B4: hu107-1-hIgG4 (antibody, V domains shown)
VH: EVQLVQSGAEVKKPGSSVKVSCKASDYTFNDYWVSWVRQAPGQGLEWIGEIYPNSGATNFNGKFRGRATLTVDNSASTAYMELSSLRSEDTAVYYCTREYTRDWFAYWGQGTLVTVSS
VL: DVVLTQSPLSLPVTLGQPASISCRSSQSLLDSDGNTYLYWFQQRPGQSPRRLIYLVSNLGSGVPDRFSGSGSGTDFTLKISRVEAEDVGVYYCMQPTHAPYTFGQGTKLEIK
notes: Human IgG4 constant region with the S228P mutation; also called hu107.1x.1x
For the molecule B4, in assay [2], the dissociation constant Kd was found to be 0.58 nM, the off-rate constant (koff) came to 8e-05 s⁻¹ and the kon turned out to be 140000 M⁻¹ s⁻¹. Also, in assay [1], the Kd is 4 nM and the kon was 330000 M⁻¹ s⁻¹. In assay [4], this molecule came in with a Kd of 0.22 nM and an off-rate (koff) of 5.2e-05 s⁻¹.

B5: hu107-1-hIgG1 (antibody, V domains shown)
VH: EVQLVQSGAEVKKPGSSVKVSCKASDYTFNDYWVSWVRQAPGQGLEWIGEIYPNSGATNFNGKFRGRATLTVDNSASTAYMELSSLRSEDTAVYYCTREYTRDWFAYWGQGTLVTVSS
VL: DVVLTQSPLSLPVTLGQPASISCRSSQSLLDSDGNTYLYWFQQRPGQSPRRLIYLVSNLGSGVPDRFSGSGSGTDFTLKISRVEAEDVGVYYCMQPTHAPYTFGQGTKLEIKR
notes: 312 is written here; Human IgG1 constant region bearing L234A and L235A; also called hu107.1x.1x
In assay [4], B5 gave a Kd of 0.13 nM, a dissociation rate constant (koff) of 4e-05 s⁻¹ and an on-rate (kon) of 310000 M⁻¹ s⁻¹.

B6: hu107-3-hIgG4 (antibody, V domains shown)
VH: EVQLVQSGAEVKKPGSSVKVSCKASDYTFNDYWVSWVRQAPGQGLEWIGEIYPNSGATNFNGKFRGRATLTVDNSASTAYMELSSLRSEDTAVYYCTREYTRDWFAYWGQGTLVTVSS
VL: DVQLTQSPSSLSASVGDRVTITCRSSQSLLDSDGNTYLYWFQQKPGKAPKRLIYLVSNLGSGVPSRFSGSGSGTDFTLTISSLQPEDFATYYCMQPTHAPYTFGQGTKVEIK
notes: Human IgG4 constant region with the S228P mutation; also called hu107.1x.1y
Consider B6, for which the dissociation constant (Kd) in assay [2] is 0.81 nM; in assay [1], 5.1 nM; in assay [4], 0.29 nM. Moreover, the off-rate (koff) stood at 0.00011 s⁻¹ in assay [2], 0.0016 s⁻¹ in assay [1] and 7e-05 s⁻¹ in assay [4]. Besides, the kon turned out to be 130000 M⁻¹ s⁻¹ in assay [2], 320000 M⁻¹ s⁻¹ in assay [1] and 240000 M⁻¹ s⁻¹ in assay [4].

B7: hu106-4-hIgG4 (antibody, V domains shown)
VH: EVQLVQSGAEVKKPGSSVKVSCKASGYTFTSYYIYWVRQAPGQGLEWIGNIWPGNGGTFYGEKFMGRATFTADTSTSTAYMELSSLRSEDTAVYYCARRPDYSGDDYFDYWGQGTLVTVSS
VL: SVELTQPPSVSVSPGQTARITCKLNSGNIGSYYVHWYQQKPGQAPVTMIYRDDKRPDGIPERFSGSSDSSSNSAFLTISGVQAEDEADYYCHSYDSTITPVFGGGTKLTVL
notes: Human IgG4 constant region with the S228P mutation; also called hu106.1x.3x
For the molecule B7, the figures for the dissociation constant (Kd) in assay [2], in assay [1] and in assay [4] were 200 nM, 9.3 nM and 180 nM, respectively. In addition, the figures for the off-rate (koff) in assay [2], in assay [1] and in assay [4] were 0.042 s⁻¹, 0.015 s⁻¹ and 0.052 s⁻¹, respectively. The kon in assay [2] is 210000 M⁻¹ s⁻¹; in assay [1] it was 1.6e+06 M⁻¹ s⁻¹; in assay [4] it was 280000 M⁻¹ s⁻¹.

B8: hu106-1-hIgG1 (antibody, V domains shown)
VH: EVQLVQSGAEVKKPGSSVKVSCKASGYTFTSYYIYWVRQAPGQGLEWIGNIWPGNGGTFYGEKFMGRATFTADTSTSTAYMELSSLRSEDTAVYYCARRPDYSGDDYFDYWGQGTLVTVSS
VL: NVMLTQPHSVSESPGKTVTISCKLNSGNIGSYYVHWYQQRPGSSPTTMIYRDDKRPDGVPDRFSGSIDSSSNSASLTISGLKTEDEADYYCHSYDSTITPVFGGGTKLTVLG
notes: 310 is written here; Human IgG1 constant region bearing L234A and L235A; also called hu106.1x.1x
B8: in assay [4], binding was characterised by a dissociation constant (Kd) of 170 nM, the off-rate (koff) turned out to be 0.1 s⁻¹ and the association rate constant (kon) was determined as 620000 M⁻¹ s⁻¹.

B9: hu106-7-hIgG4 (antibody, V domains shown)
VH: EVQLVESGGGLVQPGGSLRLSCAASGYTFTSYYIYWVRQAPGKGLEWIGNIWPGNGGTFYGEKFMGRATFSADTSKNTAYLQMNSLRAEDTAVYYCARRPDYSGDDYFDYWGQGTLVTVSS
VL: SVELTQPPSVSVSPGQTARITCKLNSGNIGSYYVHWYQQKPGQAPVTMIYRDDKRPDGIPERFSGSSDSSSNSAFLTISGVQAEDEADYYCHSYDSTITPVFGGGTKLTVL
notes: Human IgG4 constant region with the S228P mutation; also called hu106.1y.3x
For B9, in assay [2], the Kd was 420 nM, the koff came out at 0.047 s⁻¹ and the kon was found to be 110000 M⁻¹ s⁻¹. In assay [1], the dissociation constant (Kd) was determined as 17 nM, the off-rate constant (koff) came out at 0.037 s⁻¹ and the kon came out at 2.2e+06 M⁻¹ s⁻¹.
